These results are taken from US20230407373A1 (priority 2020, published 2023).

Holding throughout (type): binding
One test concerns HCoV-OC43 gRNA and sgRNA. To be noted: for target (unweighted spectral count, OC43 Probe II capture) / target (spectral count) / background (spectral count): 36 hpi; for target (unweighted spectral count, OC43 Probe II capture): type n_36_v, FDR<10%; for target (unweighted spectral count, OC43 Probe II capture) / target (unweighted spectral count): tested against no-probe control; for target (unweighted spectral count): OC43 Probe II, infected cells; for target (unweighted spectral count, OC43 Probe II) / background (unweighted spectral count, no-probe control): type n_48_v, 48 hpi; for target (unweighted spectral count, OC43 Probe II): OC43 Probe II capture on infected cells; for background (unweighted spectral count, no-probe control): no-probe control on infected cells; for target (spectral count) / background (spectral count): type s_36_m, Probe II; for target (spectral count): HCoV-OC43-infected HCT-8 cells; for background (spectral count): uninfected-probe control.

For test [1], the system named is SARS-CoV-2 gRNA and sgRNAs.
Another test has as its system SARS-CoV-2 gRNA. The conditions noted are these: for target (unweighted spectral count of the protein in the RNP capture): LC-MS/MS, Probe I sample (first 199 lines of Table 2).
The next test has as its system gRNA of HCoV-OC43. The conditions noted are these: for target (spectral count) / background (spectral count): type g_36_m, 36 hpi, Probe I; for target (spectral count): HCoV-OC43-infected HCT-8 cells; for background (spectral count): uninfected-probe control; for target (spectral count, OC43 Probe I RNP capture) / background (spectral count, no-probe control): type n_48_v: 48 hours post-infection; for target (spectral count, OC43 Probe I RNP capture): infected cells, unweighted spectral count; for background (spectral count, no-probe control): no-probe control on infected cells.

Read-outs that look alike come from different tables or passages of the source.

B1: FAM120A: host protein, UniProt Q9NZB2 (protein, UniProt Q9NZB2 1-1118, looked up)
Constitutive coactivator of …: MGVQGFQDYIEKHCPSAVVPVELQKLARGSLVGGGRQRPPQTPLRLLVDADNCLHRLYGGFYTDWVSGGQWNHMLGYLAALAKACFGGNIELFVFFNGALEKARLHEWVKRQGNERQTAQQIVSHVQNKGTPPPKVWFLPPVCMAHCIRLALIRFHVKVAQSIEDHHQEVIGFCRENGFHGLVAYDSDYALCNIPYYFSAHALKLSRNGKSLTTSQYLMHEVAKQLDLNPNRFPIFAALLGNHILPDEDLASFHWSLLGPEHPLASLKVRAHQLVLPPCDVVIKAVADYVRNIQDTSDLDAIAKDVFQHSQSRTDDKVIRFKRAIGYYSATSKPMSFHPPHYLAARPGPFGMPGMVPPHVPPQMLNIPQTSLQAKPVAPQVPSPGGAPGQGPYPYSLSEPAPLTLDTSGKNLTEQNSYSNIPHEGKHTPLYERSSPINPAQSGSPNHVDSAYFPGSSTSSSSDNDEGSGGATNHISGNKIGWEKTGSHSEPQARGDPGDQTKAEGSSTASSGSQLAEGKGSQMGTVQPIPCLLSMPTRNHMDITTPPLPPVAPEVLRVAEHRHKKGLMYPYIFHVLTKGEIKIAVSIEDEANKDLPPAALLYRPVRQYVYGVLFSLAESRKKTERLAFRKNRLPPEFSPVIIKEWAAYKGKSPQTPELVEALAFREWTCPNLKRLWLGKAVEDKNRRMRAFLACMRSDTPAMLNPANVPTHLMVLCCVLRYMVQWPGARILRRQELDAFLAQALSPKLYEPDQLQELKIENLDPRGIQLSALFMSGVDMALFANDACGQPIPWEHCCPWMYFDGKLFQSKLLKASREKTPLIDLCDGQADQAAKVEKMRQSVLEGLSFSRQSHTLPFPPPPALPFYPASAYPRHFGPVPPSQGRGRGFAGVCGFGGPYGETVATGPYRAFRVAAASGHCGAFSGSDSSRTSKSQGGVQPIPSQGGKLEIAGTVVGHWAGSRRGRGGRGPFPLQVVSVGGPARGRPRGVISTPVIRTFGRGGRYYGRGYKNQAAIQGRPPYAASAEEVAKELKSKSGESKSSAMSSDGSLAENGVMAEEKPAPQMNGSTGDARAPSHSESALNNDSKTCNTNPHLNALSTDSACRREAALEAAVLNKEE
Turning to B1, in the test on HCoV-OC43 gRNA and sgRNA, the “target (unweighted spectral count, OC43 Probe II capture)” value came to 18; the “target (unweighted spectral count, OC43 Probe II)” value was determined as 33; the “background (unweighted spectral count, no-probe control)” value was determined as 2; the “target (spectral count)” value was determined as 19. In addition, the “background (spectral count)” value in the test on HCoV-OC43 gRNA and sgRNA came out at 2. Moreover, in the test with HCoV-OC43 gRNA and sgRNA (12 hpi (type n_12_v)), the “target (unweighted spectral count)” value came to 4. Also, in the test with HCoV-OC43 gRNA and sgRNA (24 hpi (type n_24_v)), the “target (unweighted spectral count)” value was determined as 18. The “enrichment in SARS-CoV-2 Probe II RNP capture” value in test [1] is “found in the SARS-CoV-2 experiments”. Moreover, the “enrichment in SARS-CoV-2 Probe I RNP capture” value with SARS-CoV-2 gRNA is “found in the SARS-CoV-2 experiments”. Besides, in the test with gRNA of HCoV-OC43, the “target (spectral count)” value is 23; the “background (spectral count)” value was 2; the “target (spectral count, OC43 Probe I RNP capture)” value came to 29; the “background (spectral count, no-probe control)” value was determined as 2.

B2: MATR3: host protein, UniProt P43243 (protein, UniProt P43243 2-847, looked up)
Matrin-3: SKSFQQSSLSRDSQGHGRDLSAAGIGLLAAATQSLSMPASLGRMNQGTARLASLMNLGMSSSLNQQGAHSALSSASTSSHNLQSIFNIGSRGPLPLSSQHRGDADQASNILASFGLSARDLDELSRYPEDKITPENLPQILLQLKRRRTEEGPTLSYGRDGRSATREPPYRVPRDDWEEKRHFRRDSFDDRGPSLNPVLDYDHGSRSQESGYYDRMDYEDDRLRDGERCRDDSFFGETSHNYHKFDSEYERMGRGPGPLQERSLFEKKRGAPPSSNIEDFHGLLPKGYPHLCSICDLPVHSNKEWSQHINGASHSRRCQLLLEIYPEWNPDNDTGHTMGDPFMLQQSTNPAPGILGPPPPSFHLGGPAVGPRGNLGAGNGNLQGPRHMQKGRVETSRVVHIMDFQRGKNLRYQLLQLVEPFGVISNHLILNKINEAFIEMATTEDAQAAVDYYTTTPALVFGKPVRVHLSQKYKRIKKPEGKPDQKFDQKQELGRVIHLSNLPHSGYSDSAVLKLAEPYGKIKNYILMRMKSQAFIEMETREDAMAMVDHCLKKALWFQGRCVKVDLSEKYKKLVLRIPNRGIDLLKKDKSRKRSYSPDGKESPSDKKSKTDGSQKTESSTEGKEQEEKSGEDGEKDTKDDQTEQEPNMLLESEDELLVDEEEAAALLESGSSVGDETDLANLGDVASDGKKEPSDKAVKKDGSASAAAKKKLKKVDKIEELDQENEAALENGIKNEENTEPGAESSENADDPNKDTSENADGQSDENKDDYTIPDEYRIGPYQPNVPVGIDYVIPKTGFYCKLCSLFYTNEEVAKNTHCSSLPHYQKLKKFLNKLAEERRQKKET
In the case of B2, in the test on HCoV-OC43 gRNA and sgRNA, the “target (unweighted spectral count, OC43 Probe II capture)” value turned out to be 39; the “target (unweighted spectral count, OC43 Probe II)” value was 39; the “background (unweighted spectral count, no-probe control)” value was determined as 3; the “target (spectral count)” value was determined as 39. Further, the “background (spectral count)” value in the test with HCoV-OC43 gRNA and sgRNA came out at 4. Also, in the test with HCoV-OC43 gRNA and sgRNA (12 hpi (type n_12_v)), the “target (unweighted spectral count)” value stood at 11. Also, the “target (unweighted spectral count)” value in the test with HCoV-OC43 gRNA and sgRNA (24 hpi (type n_24_v)) is recorded as 20. The “enrichment in SARS-CoV-2 Probe II RNP capture” value in test [1] is given as “found in the SARS-CoV-2 experiments”. For the same molecule, in the test on SARS-CoV-2 gRNA, the “enrichment in SARS-CoV-2 Probe I RNP capture” value is reported as “found in the SARS-CoV-2 experiments” and the “target (unweighted spectral count of the protein in the RNP capture)” value was 56. Also, in the test on gRNA of HCoV-OC43, the “target (spectral count)” value is 57; the “background (spectral count)” value came to 4; the “target (spectral count, OC43 Probe I RNP capture)” value is reported as 41; the “background (spectral count, no-probe control)” value was 3.

B3: SND1: host protein, UniProt Q7KZF4 (protein, UniProt Q7KZF4 2-910, looked up)
Staphylococcal nuclease …: ASSAQSGGSSGGPAVPTVQRGIIKMVLSGCAIIVRGQPRGGPPPERQINLSNIRAGNLARRAAATQPDAKDTPDEPWAFPAREFLRKKLIGKEVCFTIENKTPQGREYGMIYLGKDTNGENIAESLVAEGLATRREGMRANNPEQNRLSECEEQAKAAKKGMWSEGNGSHTIRDLKYTIENPRHFVDSHHQKPVNAIIEHVRDGSVVRALLLPDYYLVTVMLSGIKCPTFRREADGSETPEPFAAEAKFFTESRLLQRDVQIILESCHNQNILGTILHPNGNITELLLKEGFARCVDWSIAVYTRGAEKLRAAERFAKERRLRIWRDYVAPTANLDQKDKQFVAKVMQVLNADAIVVKLNSGDYKTIHLSSIRPPRLEGENTQDKNKKLRPLYDIPYMFEAREFLRKKLIGKKVNVTVDYIRPASPATETVPAFSERTCATVTIGGINIAEALVSKGLATVIRYRQDDDQRSSHYDELLAAEARAIKNGKGLHSKKEVPIHRVADISGDTQKAKQFLPFLQRAGRSEAVVEYVFSGSRLKLYLPKETCLITFLLAGIECPRGARNLPGLVQEGEPFSEEATLFTKELVLQREVEVEVESMDKAGNFIGWLHIDGANLSVLLVEHALSKVHFTAERSSYYKSLLSAEEAAKQKKEKVWAHYEEQPVEEVMPVLEEKERSASYKPVFVTEITDDLHFYVQDVETGTQLEKLMENMRNDIASHPPVEGSYAPRRGEFCIAKFVDGEWYRARVEKVESPAKIHVFYIDYGNREVLPSTRLGTLSPAFSTRVLPAQATEYAFAFIQVPQDDDARTDAVDSVVRDIQNTQCLLNVEHLSAGCPHVTLQFADSKGDVGLGLVKEGLVMVEVRKEKQFQKVITEYLNAQESAKSARLNLWRYGDFRADDADEFGYSR
As for B3, in the test on HCoV-OC43 gRNA and sgRNA, the “target (unweighted spectral count, OC43 Probe II capture)” value was 57; the “target (unweighted spectral count, OC43 Probe II)” value is listed as 84; the “background (unweighted spectral count, no-probe control)” value was 6; the “target (spectral count)” value is reported as 57. Besides, the “background (spectral count)” value with HCoV-OC43 gRNA and sgRNA worked out at 1. In the test with HCoV-OC43 gRNA and sgRNA (12 hpi (type n_12_v)), the “target (unweighted spectral count)” value is 27. For the same molecule, in the test with HCoV-OC43 gRNA and sgRNA (24 hpi (type n_24_v)), the “target (unweighted spectral count)” value was found to be 37. The “enrichment in SARS-CoV-2 Probe II RNP capture” value in test [1] was “found in the SARS-CoV-2 experiments”. Moreover, the “background (unweighted spectral count in control)” value in test [1] (no-probe control pull-down, used as background for Probe II) is 1. In the test on SARS-CoV-2 gRNA, the “enrichment in SARS-CoV-2 Probe I RNP capture” value was “found in the SARS-CoV-2 experiments” and the “target (unweighted spectral count of the protein in the RNP capture)” value is on record as 16. In addition, in the test on gRNA of HCoV-OC43, the “target (spectral count)” value was 16; the “background (spectral count)” value worked out at 3; the “target (spectral count, OC43 Probe I RNP capture)” value is recorded as 25; the “background (spectral count, no-probe control)” value was found to be 6.
